Data from US20160279215A1, “NOVEL PEPTIDES AND COMBINATION OF PEPTIDES FOR USE IN IMMUNOTHERAPY AGAINST VARIOUS TUMORS” (immatics biotechnologies GmbH, priority 2015, published 2016).

What was measured:
HLA-A*02:01 [1] = molecular target: T1, HLA-A*02:01 (human); assay: UV ligand-exchange ELISA (anti-b2m); ++ = exchange yield >=20%
T1 construct: MHC monomers captured on streptavidin plates; the UV-sensitive peptide is cleaved and exchanged with the test peptide; also called peptide-receptive MHC molecules; MHC class I
Text: (§1) Candidate peptides for T cell based therapies according to the present invention were further tested for their MHC binding capacity (affinity). The individual peptide-MHC complexes were produced by UV-ligand exchange, where a UV-sensitive peptide is cleaved upon UV-irradiation, and exchanged with the peptide of interest as analyzed. Only peptide candidates that can effectively bind and stabilize the peptide-receptive MHC molecules prevent dissociation of the MHC complexes. To determine the yield of the exchange reaction, an ELISA was performed based on the detection of the light chain (β2m) of stabilized MHC complexes. The assay was performed as generally described in Rodenko et al. (Rodenko et al., 2006).
(§2) 96 well MAXISorp plates (NUNC) were coated over night with 2 ug/ml streptavidin in PBS at room temperature, washed 4× and blocked for 1 h at 37° C. in 2% BSA containing blocking buffer. Refolded HLA-A*02:01/MLA-001 monomers served as standards, covering the range of 15-500 ng/ml. Peptide-MHC monomers of the UV-exchange reaction were diluted 100 fold in blocking buffer. Samples were incubated for 1 h at 37° C., washed four times, incubated with 2 ug/ml HRP conjugated anti-β2m for 1 h at 37° C., washed again and detected with TMB solution that is stopped with […]. Absorption was measured at 450 nm. Candidate peptides that show a high exchange yield (preferably higher than 50%, most preferred higher than 75%) are generally preferred for a generation and production of antibodies or fragments thereof, and/or T cell receptors or fragments thereof, as they show sufficient avidity to the MHC molecules and prevent dissociation of the MHC complexes.

HLA-A*02:01 [2] = molecular target: T1, HLA-A*02:01; assay: UV ligand-exchange ELISA (anti-b2m); +++ = exchange yield >=50
Text: as §1, §2

| Binder | peptide exchange yield (HLA-A*02:01 [1]) [%] | peptide exchange yield (HLA-A*02:01 [2]) [%] |
| --- | --- | --- |
| ALYVQAPTV | 20 to 50 |  |
| ALYSGDLHAA | 20 to 50 |  |
| FLDGRPLTL | 20 to 50 |  |
| ILGSFELQL |  | 50 to 75 |
| ALVEKGEFAL | 20 to 50 |  |
| ALLLRLFTI | 20 to 50 |  |
| ILTNKVVSV | 20 to 50 |  |
| ILHGEVNKV | 20 to 50 |  |
| GLEERLYTA | 20 to 50 |  |
| GLYPVTLVGV |  | 50 to 75 |
| ILQDGQFLV (also called DCAF4L2-001) | 20 to 50 |  |
| GLAEFQENV | 20 to 50 |  |
| ALLSSVAEA | 20 to 50 |  |
| ALDSTIAHL | 20 to 50 |  |
| FIAAVVEKV | 20 to 50 |  |
| GIINKLVTV | 20 to 50 |  |
| HLQEKLQSL | 20 to 50 |  |
| FLFVDPELV | 20 to 50 |  |
| DISKRIQSL | 20 to 50 |  |
| GVVPTIQKV (also called GWPTIQKV) | 20 to 50 |  |
| FLFLKEVKV | 20 to 50 |  |
| FVQEKIPEL |  | 50 to 75 |
| ALLEEEEGV (also called MAGEA4-003) | 20 to 50 |  |
| AIIKEIQTV | 20 to 50 |  |
| ALQSFEFRV |  | 50 to 75 |
| ALSTVTPRI | 20 to 50 |  |
| FIANLPPELKA |  | 50 to 75 |
| HLNNDRNPL | 20 to 50 |  |

Other lines, results leading:

| peptide exchange yield (HLA-A*02:01 [1]) [%] | peptide exchange yield (HLA-A*02:01 [2]) [%] | Binder |
| --- | --- | --- |
| 20 to 50 |  | TLLEGISRA (also called CABY-001) |
| 20 to 50 |  | SLYKSFLQL |
| 20 to 50 |  | KLIYKDLVSV |
| 20 to 50 |  | LLDAAHASI |
| 20 to 50 |  | TLLPSSGLVTL |
| 20 to 50 |  | SILKEDPFL |
| 20 to 50 |  | LLTGVFAQL |
| 20 to 50 |  | VLGEEQEGV |
| 20 to 50 |  | SLIEESEEL |
| 20 to 50 |  | QIADIVTSV |
| 20 to 50 |  | SVADLAHVL |
| 20 to 50 |  | NIDINNNEL |
| 20 to 50 |  | VVAAHLAGA |
| 20 to 50 |  | LLLLDVPTA |
| 20 to 50 |  | TLDSYLKAV (also called CYP4Z-001) |
| 20 to 50 |  | MTLSEIHAV |
| 20 to 50 |  | KTASINQNV |
|  | 50 to 75 | SLLEVNEASSV |
| 20 to 50 |  | KMASKVTQV |

| peptide exchange yield (HLA-A*02:01 [1]) [%] | peptide exchange yield (HLA-A*02:01 [2]) [%] | Binder |
| --- | --- | --- |
| 20 to 50 |  | YLYELEHAL |
|  | 50 to 75 | KLIDEDEPLFL |
| 20 to 50 |  | NLLIDDKGTIKL |
|  | 50 to 75 | KLFEKSTGL |
| 20 to 50 |  | SLLNQPKAV |
|  | 50 to 75 | LLDPKTIFL (also called HAVCR1-001) |
|  | 50 to 75 | TLFGIQLTEA |
| 20 to 50 |  | QIQGQVSEV |
| 20 to 50 |  | KVFELDLVTL |
| 20 to 50 |  | KLLEEVQLL |
| 20 to 50 |  | SILTNISEV |
| 20 to 50 |  | IMLNSVEEI |
|  | 50 to 75 | SLAETIFIV (also called HTR3A-001) |
| 20 to 50 |  | NMADGQLHQV |
|  | 50 to 75 | QLIEKNWLL |
|  | 50 to 75 | YLDEVAFML |
| 20 to 50 |  | LLFPSDVQTL |
| 20 to 50 |  | VQSGLRILL |
| 20 to 50 |  | TLYQGLPAEV |
